The data set deals with CSCC[C@H](N)C(=O)Nc1ccc2c(C)cc(=O)oc2c1. In words: purified protein. Particulars: Fe(II) form, 10 μM FeCl2.

Regarding “MtMetAP1a (Mycobacterium tuberculosis H37Rv)”, the Km (in general, the substrate concentration at which the rate is half of its maximum) amounted to 161 µM.

Values taken from publication PMC2860377.
